The values below are quoted from earlier work in PMC13042399.

The data set addresses IGF2 (Homo sapiens) (UniProt P01344).

Chain of IGF2 (Homo sapiens) (P01344 25-91): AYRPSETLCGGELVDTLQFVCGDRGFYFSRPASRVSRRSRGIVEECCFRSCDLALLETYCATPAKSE

What is called Kd is the free concentration of one partner at which half of the binding sites on the other are occupied at equilibrium, for simple one-to-one binding. Take IGF2R (from UniProt P11717): the Kd was 40 nM.
